± gives the standard deviation of the averaged measurements.
How the values were obtained:
Saccharomyces cerevisiae [1] = test: protein stability index of tFT-peptide fusion (C-terminal peptide) (PSI (0-1 scale)); higher = more stable (slower turnover)
Experimental: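 MPS profiling in S. cerevisiae of the tFT-X12 degron library: putative degron peptides plus stable controls, 12 aa, fused to the C-terminus of a sfGFP-mCherry timer. Cells are FACS-sorted into 8 mCherry/sfGFP bins and deep-sequenced. PSI runs from 0 (unstable) to 1 (stable). Backgrounds are wild type, das1Δ and doa10Δ at 30 °C, and wild type, das1Δ, cdc34-1 and cdc53-1 at 37 °C; 2-3 technical replicates each.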

Saccharomyces cerevisiae [2] = test: as above; conditions: genetic background: wild type; temperature: 30 C
[3] = genetic background: cdc34-1, temperature: 37 C
[4] = genetic background: cdc53-1, temperature: 37 C
[5] = genetic background: das1 deletion, temperature: 30 C
[6] = genetic background: das1 deletion, temperature: 37 C
[7] = genetic background: doa10 deletion, temperature: 30 C
[8] = genetic background: wild type, temperature: 30 C
[9] = genetic background: wild type, temperature: 37 C
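Further: PSI is a weighted mean of sequencing reads over stability bins, variants kept only with over 10 reads, mCherry proximal and sfGFP distal, peptide attached via GGGS linker.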

Sequence | protein stability index (Saccharomyces cerevisiae [1]; [3]) | protein stability index (Saccharomyces cerevisiae [1]; [4]) | protein stability index (Saccharomyces cerevisiae [1]; [5]) | protein stability index (Saccharomyces cerevisiae [1]; [6]) | protein stability index (Saccharomyces cerevisiae [1]; [7]) | protein stability index (Saccharomyces cerevisiae [1]; [8]) | protein stability index (Saccharomyces cerevisiae [1]; [9]) | protein stability index (Saccharomyces cerevisiae [2])
DVWEHLHKQHNM | 0.704 ± 0.015 | 0.765 ± 0.032 | 0.699 ± 0.024 | 0.753 ± 0.032 | 0.274 ± 0.021 | 0.348 ± 0.053 | 0.62 ± 0.032 | 0.499 ± 0.085
SSAPPTLHTRPS | 0.642 ± 0.027 | 0.7092 ± 0.0049 | 0.662 ± 0.023 | 0.686 ± 0.012 | 0.664 ± 0.0071 | 0.6631 ± 0.0044 | 0.681 ± 0.0066 | 0.539 ± 0.059
HANPGTFGPCTR | 0.654 ± 0.019 | 0.7204 ± 0.006 | 0.645 ± 0.012 | 0.72 ± 0.0081 | 0.658 ± 0.019 | 0.6499 ± 0.0061 | 0.683 ± 0.017 | 0.696 ± 0.048
YHRKAILMCTFS | 0.506 ± 0.044 | 0.55 ± 0.011 | 0.443 ± 0.02 | 0.5702 ± 0.0011 | 0.3072 ± 0.00055 | 0.299 ± 0.017 | 0.461 ± 0.021 | 0.443 ± 0.078
VRLHIAMWLRRC | 0.299 ± 0.02 | 0.271 ± 0.022 | 0.316 ± 0.027 | 0.414 ± 0.007 | 0.138 ± 0.015 | 0.0999 ± 0.025 | 0.18975 ± 1.6e-05 | 0.14 ± 0.027
RLMLSWLALRRC | 0.617 ± 0.058 | 0.665 ± 0.015 | 0.601 ± 0.036 | 0.689 ± 0.02 | 0.351 ± 0.026 | 0.344 ± 0.068 | 0.575 ± 0.0095 | 0.476 ± 0.0067
FQFTLWRTLLCS | 0.1843 ± 0.00066 | 0.248 ± 0.03 | 0.218 ± 0.026 | 0.3394 ± 0.0027 | 0.113 ± 0.015 | 0.137 ± 0.021 | 0.174 ± 0.0054 | 0.189 ± 0.0077
VLVVRVLLSDLV | 0.178 ± 0.02 | 0.255 ± 0.021 | 0.18 ± 0.028 | 0.36571 ± 8.9e-05 | 0.157 ± 0.012 | 0.17 ± 0.012 | 0.338 ± 0.01 | 0.262 ± 0.0089
FRCPHAVKLVLV | 0.384 ± 0.021 | 0.404 ± 0.016 | 0.328 ± 0.037 | 0.471 ± 0.011 | 0.1947 ± 0.0014 | 0.214 ± 0.018 | 0.33212 ± 0.00028 | 0.311 ± 0.02
QCSVRLKEIQFS | 0.664 ± 0.032 | 0.726 ± 0.011 | 0.673 ± 0.03 | 0.72 ± 0.028 | 0.209 ± 0.023 | 0.276 ± 0.0056 | 0.481 ± 0.045 | 0.346 ± 0.1
RRRRHVDHSTQR | 0.495 ± 0.04 | 0.572 ± 0.0085 | 0.542 ± 0.011 | 0.582 ± 0.011 | 0.557 ± 0.038 | 0.554 ± 0.045 | 0.5704 ± 0.0037 | 0.4737 ± 0.0036
ETYCLPRVASGI | 0.695 ± 0.021 | 0.733 ± 0.026 | 0.655 ± 0.013 | 0.733 ± 0.029 | 0.666 ± 0.02 | 0.665 ± 0.021 | 0.708 ± 0.02 | 0.733 ± 0.0075
LWFRCVRMQACR | 0.47 ± 0.031 | 0.51569 ± 0.00022 | 0.411 ± 0.019 | 0.5101 ± 0.0028 | 0.42 ± 0.025 | 0.41 ± 0.015 | 0.492 ± 0.0094 | 0.507 ± 0.032
LLVYLYFFFSCS | 0.309 ± 0.041 | 0.442 ± 0.045 | 0.292 ± 0.021 | 0.484 ± 0.005 | 0.2414 ± 0.0016 | 0.263 ± 0.011 | 0.42 ± 0.027 | 0.374 ± 0.022
WLTCSLVFNVFW | 0.429 ± 0.025 | 0.455 ± 0.007 | 0.406 ± 0.014 | 0.482 ± 0.0057 | 0.448 ± 0.032 | 0.389 ± 0.026 | 0.471 ± 0.015 | 0.438 ± 0.0061
NSCHFYSRFYLA | 0.651 ± 0.012 | 0.7421 ± 0.00091 | 0.657 ± 0.022 | 0.70341 ± 0.00042 | 0.243 ± 0.0054 | 0.3 ± 0.019 | 0.5196 ± 0.00096 | 0.3452 ± 0.0025
WVLFRLPYQFFS | 0.668 ± 0.048 | 0.707 ± 0.021 | 0.57 ± 0.038 | 0.737 ± 0.026 | 0.368 ± 0.0073 | 0.393 ± 0.022 | 0.633 ± 0.0017 | 0.436 ± 0.0098
VVCLLGIFYGFC | 0.382 ± 0.023 | 0.497 ± 0.045 | 0.313 ± 0.031 | 0.5138 ± 0.00014 | 0.293 ± 0.021 | 0.307 ± 0.031 | 0.51 ± 0.014 | 0.446 ± 0.07
FGLLLVLASALG | 0.356 ± 0.034 | 0.438 ± 0.026 | 0.318 ± 0.022 | 0.465 ± 0.018 | 0.284 ± 0.024 | 0.307 ± 0.019 | 0.4411 ± 0.0012 | 0.3828 ± 0.0021
FWESHVLPYRLL | 0.654 ± 0.036 | 0.78233 ± 0.00013 | 0.644 ± 0.014 | 0.7799 ± 0.0022 | 0.19 ± 0.008 | 0.223 ± 0.018 | 0.465 ± 0.028 | 0.239 ± 0.045

Sequence | protein stability index (Saccharomyces cerevisiae [1]; [3]) | protein stability index (Saccharomyces cerevisiae [1]; [4]) | protein stability index (Saccharomyces cerevisiae [1]; [5]) | protein stability index (Saccharomyces cerevisiae [1]; [6]) | protein stability index (Saccharomyces cerevisiae [1]; [7]) | protein stability index (Saccharomyces cerevisiae [1]; [8]) | protein stability index (Saccharomyces cerevisiae [1]; [9]) | protein stability index (Saccharomyces cerevisiae [2])
IIVLNIGSVIFC | 0.456 ± 0.063 | 0.5884 ± 0.002 | 0.397 ± 0.018 | 0.5716 ± 0.0053 | 0.387 ± 0.0076 | 0.4057 ± 0.0017 | 0.549 ± 0.028 | 0.4951 ± 0.0022
SCLVLDYCFSLV | 0.649 ± 0.037 | 0.631 ± 0.012 | 0.419 ± 0.029 | 0.643 ± 0.0034 | 0.446 ± 0.019 | 0.435 ± 0.02 | 0.613 ± 0.0062 | 0.442 ± 0.016
IERGLMLTLCVH | 0.0536 ± 0.009 | 0.0716 ± 0.028 | 0.172 ± 0.027 | 0.205 ± 0.0033 | 0.115 ± 0.013 | 0.156 ± 0.024 | 0.171 ± 0.0059 | 0.22 ± 0.014
FLIVLLVIFFGF | 0.275 ± 0.0072 | 0.387 ± 0.019 | 0.276 ± 0.023 | 0.367 ± 0.023 | 0.275 ± 0.018 | 0.269 ± 0.04 | 0.357 ± 0.018 | 0.324 ± 0.006
MALAVRVVACGA | 0.125 ± 0.032 | 0.1647 ± 0.0014 | 0.196 ± 0.026 | 0.281 ± 0.0065 | 0.157 ± 0.012 | 0.19 ± 0.024 | 0.236 ± 0.0084 | 0.261 ± 0.0094
TLFSFLLVFVFG | 0.209 ± 0.0076 | 0.315 ± 0.0035 | 0.228 ± 0.035 | 0.386 ± 0.0047 | 0.185 ± 0.019 | 0.206 ± 0.031 | 0.35 ± 0.0049 | 0.411 ± 0.017
RGYATTALHWVS | 0.668 ± 0.038 | 0.7695 ± 0.0075 | 0.6757 ± 0.002 | 0.7395 ± 0.0034 | 0.362 ± 0.0075 | 0.4 ± 0.022 | 0.596 ± 0.015 | 0.486 ± 0.019
VFVLFLRAVACR | 0.0227 ± 0.0013 | 0.0336 ± 0.0004 | 0.0288 ± 0.0046 | 0.0423 ± 0.0022 | 0.0174 ± 0.0024 | 0.0193 ± 0.0039 | 0.0342 ± 0.015 | 0.0236 ± 0.013
VVATLRCLRCSV | 0.474 ± 0.014 | 0.501 ± 0.052 | 0.346 ± 0.035 | 0.5244 ± 0.0026 | 0.236 ± 0.014 | 0.273 ± 0.043 | 0.441 ± 0.013 | 0.405 ± 0.021
KLLISLTWFCVL | 0.395 ± 0.036 | 0.476 ± 0.014 | 0.373 ± 0.029 | 0.527 ± 0.019 | 0.165 ± 0.0032 | 0.192 ± 0.028 | 0.3344 ± 0.00067 | 0.284 ± 0.092
KVFWRPAWVAEV | 0.6563 ± 0.0016 | 0.7475 ± 0.0067 | 0.631 ± 0.016 | 0.733 ± 0.0084 | 0.237 ± 0.011 | 0.28 ± 0.034 | 0.512 ± 0.013 | 0.371 ± 0.026
FQLGLVFCVCSG | 0.432 ± 0.0073 | 0.438 ± 0.022 | 0.258 ± 0.041 | 0.469 ± 0.0075 | 0.244 ± 0.0076 | 0.258 ± 0.026 | 0.453 ± 0.016 | 0.367 ± 0.022
RVSIIYLGVLIS | 0.174 ± 0.012 | 0.297 ± 0.025 | 0.26 ± 0.024 | 0.436 ± 0.0092 | 0.0604 ± 0.011 | 0.073 ± 0.013 | 0.0592 ± 0.036 | 0.112 ± 0.025
IRDGPWKRVLVV | 0.599 ± 0.031 | 0.596 ± 0.01 | 0.48 ± 0.028 | 0.642 ± 0.0055 | 0.125 ± 0.0086 | 0.157 ± 0.015 | 0.245 ± 0.0076 | 0.348 ± 0.051
PLSSHIPVHEAR | 0.659 ± 0.052 | 0.744 ± 0.035 | 0.699 ± 0.017 | 0.706 ± 0.011 | 0.674 ± 0.012 | 0.645 ± 0.025 | 0.6878 ± 0.0027 | 0.718 ± 0.025
LFSFVCLVFFLW | 0.312 ± 0.017 | 0.375 ± 0.006 | 0.291 ± 0.03 | 0.441 ± 0.0094 | 0.306 ± 0.032 | 0.27 ± 0.026 | 0.4178 ± 0.00065 | 0.38 ± 0.07
SPTQIPLWILAS | 0.258 ± 0.0095 | 0.394 ± 0.04 | 0.308 ± 0.04 | 0.4539 ± 0.0022 | 0.102 ± 0.0074 | 0.114 ± 0.014 | 0.12 ± 0.015 | 0.186 ± 0.015
VLFLLLFVSRVA | 0.2684 ± 0.0016 | 0.398 ± 0.017 | 0.259 ± 0.035 | 0.453 ± 0.016 | 0.203 ± 0.012 | 0.224 ± 0.03 | 0.381 ± 0.042 | 0.3312 ± 0.0014
LIRLCVAPMVCR | 0.455 ± 0.02 | 0.48 ± 0.0056 | 0.349 ± 0.023 | 0.5145 ± 0.0016 | 0.32 ± 0.005 | 0.349 ± 0.02 | 0.485 ± 0.011 | 0.438 ± 0.015

Source: the supplement of paper PMC10724198
